Laboratory results as given in patent US20170327535A1.

Molecular target: aTNFa-Fab (Fab fragment of Infliximab, Remicade)
Assay: dynamic binding capacity on a 1 mL-gel column, 1 mg/mL aTNFa-Fab at […], 55% breakthrough

B1: LB5t-Wild.4d (four connected B5 domains of PpL312), immobilized on agarose carrier (protein)
chain: KEETPETPETDSEEQVTIKENIYFEDGTVQTATFKGTFAEATAEAYRYADLLSKEHGKYTADLEDGGYTINIRFAGKEKTPEEPKEQVTIKENIYFEDGTVQTATFKGTFAEATAEAYRYADLLSKEHGKYTADLEDGGYTINIRFAGKEKTPEEPKEQVTIKENIYFEDGTVQTATFKGTFAEATAEAYRYADLLSKEHGKYTADLEDGGYTINIRFAGKEKTPEEPKEQVTIKENIYFEDGTVQTATFKGTFAEATAEAYRYADLLSKEHGKYTADLEDGGYTINIRFAGKKVDEKPEEC
modifications: coupled to maleimide-activated (EMCH) NHS Activated Sepharose 4 Fast Flow through a reactive amino acid residue
55% DBC: 48.6 mg/mL/gel
